Columns and labels:
Assay in all cases: AUC
[1] = target: I-CreI 28K30N33H38Q40S44K68A70S75N (combinatorial mutant KNHQS/KAS) (Chlamydomonas reinhardti)
[2] = target: I-CreI 28N30N33S38R40K44A68R70R75N (combinatorial mutant NNSRK/ARR) (Chlamydomonas reinhardti)
[3] = target: I-CreI 28N30N33S38R40K44A68S70R75N (combinatorial mutant NNSRK/ASR) (Chlamydomonas reinhardti)
[4] = target: I-CreI 28K30N33H38Q40S44K68E70G75N (combinatorial mutant KNHQS/KEG) (Chlamydomonas reinhardti)

I-CreI 28K30N33H38Q40S44K68A70S75N (combinatorial mutant KNHQS/KAS) (enzyme)
stoichiometry N [1]: 2

I-CreI 28N30N33S38R40K44A68R70R75N (combinatorial mutant NNSRK/ARR) (enzyme)
stoichiometry N [2]: 2

I-CreI 28N30N33S38R40K44A68S70R75N (combinatorial mutant NNSRK/ASR) (enzyme)
stoichiometry N [3]: 2

I-CreI 28K30N33H38Q40S44K68E70G75N (combinatorial mutant KNHQS/KEG) (enzyme)
stoichiometry N [4]: 2

— PMC1702487
